The term Kd denotes the free concentration of one partner at which half of the binding sites on the other are occupied at equilibrium, for simple one-to-one binding. As a reminder, the stoichiometry N is the number of molecules, sites or subunits per partner or assembly.

The source of these data is PMC5711770, “Acetylome of Acinetobacter baumannii SK17 Reveals a Highly-Conserved Modification of Histone-Like Protein HU” (Frontiers in Molecular Biosciences, 2017).

In data set [1] the target is HU(K13ac) (C-terminal His-tag) (Acinetobacter baumannii SK17, UniProt A0ABX6CHP0, K13ac). Briefly: BLI; kon and koff several-fold lower than wt; BLI: 30 mM Tris pH 7.5, 100 mM NaCl, 0.02% Tween20, 0.5 mg/ml BSA, 25°C; EMSA: same buffer, 37°C 1 h, 250 ng DNA in 10 µl, 1% agarose in TAE; AFM: 10 mM HEPES pH 7.5, 4 mM MgCl2. The note with it: protein: recombinant; chain copies: 2; label: 5'-biotin on strand 1; (only one strand printed).

For data set [2], the target named is HU (wt, C-terminal His-tag) (Acinetobacter baumannii SK17, UniProt A0ABX6CHP0). In words: BLI; BLI: 30 mM Tris pH 7.5, 100 mM NaCl, 0.02% Tween20, 0.5 mg/ml BSA, 25°C; EMSA: same buffer, 37°C 1 h, 250 ng DNA in 10 µl, 1% agarose in TAE; AFM: 10 mM HEPES pH 7.5, 4 mM MgCl2. As to conditions: protein: recombinant; chain copies: 2; label: 5'-biotin on strand 1; (only one strand printed). Background: In BLI a coated tip is dipped into the sample, and binding shifts an interference pattern.

Data set [3] deals with HU (wt*, without His-tag) (Acinetobacter baumannii SK17, UniProt A0ABX6CHP0). Described as above. As to conditions: protein: recombinant; tags: none; N-terminal GA remains after TEV cleavage; chain copies: 2; label: 5'-biotin on strand 1; (only one strand printed).
Data set [4] deals with the molecule itself. Briefly: SEC; analytical size-exclusion chromatography, Superdex 75 10/300 GL, PBS, 0.5 ml/min; size judged against ovalbumin (44 kDa) and myoglobin (17 kDa) markers. Background: In gel filtration, larger molecules generally elute earlier.

B1: biotin-labeled dsDNA (BLI) (dsDNA)
DNA 1: ATTAATATTTTCTTAAACTAATTTAAAAT
DNA 2: ATTTTAAATTAGTTTAAGAAAATATTAAT
B1: the figures for the Kd in data set [1], in data set [2] and in data set [3] were 0.184 ± 0.0093 µM, 0.349 ± 0.352 µM and 0.276 ± 0.143 µM, respectively.

B2: wild-type HU with a C-terminal His-tag (Acinetobacter baumannii SK17 histone-like DNA-binding protein HU) (natural protein, UniProt A0ABX6CHP0 1-90, looked up)
chain: MNKSELIDAIAEKGGVSKTDAGKALDATIASITEALKKGDTVTLVGFGTFSVKERAARTGRNPKTGEELQIKATKVPSFKAGKGLKDSVA
notes: cloned whole between NdeI and XhoI of pET-21a(+); also called wt HU; wt; source: E. coli BL21(DE3), purified (Ni-NTA, cation-exchange chromatography); not shown: His6, C-terminal, kept
B2: the “stoichiometry N” value in data set [4] was found to be 2.

B3: HU(K13ac), HU acetylated at Lys13, with a C-terminal His-tag (natural protein, Acinetobacter baumannii SK17, UniProt A0ABX6CHP0 1-90, looked up)
chain: B2 chain
modifications: acetyllysine at residue 13
notes: the codon of Lys13 replaced by an amber codon for site-specific incorporation of acetyllysine; also called Lys13-acetylated HU; not shown: His6, C-terminal, kept
Regarding B3, in data set [4], the “stoichiometry N” value stood at 2.
